Tests used:
Experiment in all cases: cell-based or functional assay
[1] = target: HIV-1 Env of pseudovirus MGRM-D-021 (HIV-1)
[2] = target: HIV-1 envelope glycoprotein (Env) of isolate MG RM-AG-001 (HIV-1)
[3] = target: HIV-1 envelope glycoprotein (Env) of isolate MGRM-C-019 (HIV-1)
[4] = target: HIV-1 Env of pseudovirus MGRM-F1-021 (clade F) (HIV-1)
[5] = target: HIV-1 MGRM-G-009 Env (pseudovirus) (HIV-1)
[6] = target: HIV-1 MGRM-AE-007 Env (pseudovirus) (HIV-1)
[7] = target: HIV-1 MGRM-AE-003 Env (pseudovirus) (HIV-1)
[8] = target: HIV-1 Env of isolate THR0.18 (Acute), clade B (HIV-1)
[9] = target: HIV-1 Env of isolate MGRM-A-005 (clade A pseudovirus) (HIV-1)
[10] = target: HIV-1 APV-13 envelope (Env) on pseudovirus (HIV-1)
[11] = target: HIV-1 MGRM-AG-013 Env (pseudovirus) (HIV-1)
[12] = target: HIV-1 envelope glycoprotein (Env) of isolate MGRM-C-001 (HIV-1)
[13] = target: HIV-1 Env of isolate MGRM-A-009 (clade A pseudovirus) (HIV-1)
[14] = target: HIV-1 Env of isolate MGRM-A-003 (clade A pseudovirus) (HIV-1)
[15] = target: HIV-1 Env of pseudovirus MGRM-F1-023 (clade F) (HIV-1)
[16] = target: HIV-1 Env of pseudovirus MGRM-F1-006 (clade F) (HIV-1)
[17] = target: HIV-1 Env of pseudovirus MGRM-G-028 (HIV-1)
[18] = target: HIV-1 Env of isolate MGRM-C-028 (subtype C), on pseudovirus (HIV-1)
[19] = target: HIV-1 Env of pseudovirus isolate CAAN.A2 (clade B) (HIV-1)
[20] = target: HIV-1 Env of pseudovirus isolate MGRM-Chronic-B-008 (clade B) (HIV-1)
[21] = target: HIV-1 Env of isolate 92UG005 (HIV-1)
[22] = target: HIV-1 Env of pseudovirus isolate 93TH305 (clade B) (HIV-1)
[23] = target: HIV-1 Env of pseudovirus isolate 92BR020 (clade B) (HIV-1)
[24] = target: HIV-1 Env of isolate 92RW008 (subtype A) (HIV-1)
[25] = target: HIV-1 Env of isolate MGRM-G-006 (subtype G) (HIV-1)
[26] = target: HIV-1 Env of isolate MGRM-D-001 (HIV-1)
[27] = target: HIV-1 Env of isolate 98CN006 (HIV-1)
[28] = target: HIV-1 Env of isolate 92TH021 (pseudovirus) (HIV-1)
[29] = target: HIV-1 Env of isolate MGRM-G-024 (subtype G) (HIV-1)

Chain of 4993_K13 (PGT-141) (antibody) (VH): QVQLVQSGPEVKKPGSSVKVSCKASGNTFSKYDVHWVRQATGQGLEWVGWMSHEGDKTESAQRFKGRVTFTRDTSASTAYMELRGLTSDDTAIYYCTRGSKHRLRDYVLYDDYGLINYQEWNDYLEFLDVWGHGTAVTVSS
Chain of 4993_K13 (PGT-141) (antibody) (VL): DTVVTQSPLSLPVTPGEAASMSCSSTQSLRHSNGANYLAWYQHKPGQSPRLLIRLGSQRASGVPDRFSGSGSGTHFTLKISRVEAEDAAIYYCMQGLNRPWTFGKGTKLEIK
Chain of 1443_C16 (PG16) (TCN-116) (antibody) (VH): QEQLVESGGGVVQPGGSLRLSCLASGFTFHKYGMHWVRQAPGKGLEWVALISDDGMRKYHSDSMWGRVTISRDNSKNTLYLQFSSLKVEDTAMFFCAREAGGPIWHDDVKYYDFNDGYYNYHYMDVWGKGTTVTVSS
Chain of 1443_C16 (PG16) (TCN-116) (antibody) (VL): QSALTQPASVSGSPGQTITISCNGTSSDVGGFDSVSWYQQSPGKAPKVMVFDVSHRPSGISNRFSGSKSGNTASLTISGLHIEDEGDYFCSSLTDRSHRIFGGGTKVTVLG
Chain of PGT-145 (4995_P16) (antibody) (VH): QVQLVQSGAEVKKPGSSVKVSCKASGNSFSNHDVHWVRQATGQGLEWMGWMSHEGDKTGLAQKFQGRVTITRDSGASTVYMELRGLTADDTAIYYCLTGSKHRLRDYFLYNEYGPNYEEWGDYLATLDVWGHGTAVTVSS
Chain of PGT-145 (4995_P16) (antibody) (VL): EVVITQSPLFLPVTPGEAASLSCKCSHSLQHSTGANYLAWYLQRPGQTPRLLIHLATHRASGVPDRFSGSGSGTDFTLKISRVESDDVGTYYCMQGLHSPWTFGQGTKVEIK
Chain of PGT-144 (4970_K22) (antibody) (VH): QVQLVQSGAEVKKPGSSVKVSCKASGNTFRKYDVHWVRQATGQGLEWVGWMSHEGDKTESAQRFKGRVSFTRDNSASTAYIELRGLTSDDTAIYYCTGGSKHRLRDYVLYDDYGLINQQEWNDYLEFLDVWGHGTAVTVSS
Chain of PGT-144 (4970_K22) (antibody) (VL): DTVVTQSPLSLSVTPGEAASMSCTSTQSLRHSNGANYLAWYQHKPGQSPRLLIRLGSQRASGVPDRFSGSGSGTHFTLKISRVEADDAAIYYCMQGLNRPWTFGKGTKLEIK
Chain of PGT-142 (4995_E20) (antibody) (VH): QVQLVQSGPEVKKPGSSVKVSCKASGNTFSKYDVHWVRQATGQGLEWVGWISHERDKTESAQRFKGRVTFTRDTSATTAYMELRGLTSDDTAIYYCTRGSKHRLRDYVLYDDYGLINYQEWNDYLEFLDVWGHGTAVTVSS
Chain of PGT-143 (4980_N08) (antibody) (VH): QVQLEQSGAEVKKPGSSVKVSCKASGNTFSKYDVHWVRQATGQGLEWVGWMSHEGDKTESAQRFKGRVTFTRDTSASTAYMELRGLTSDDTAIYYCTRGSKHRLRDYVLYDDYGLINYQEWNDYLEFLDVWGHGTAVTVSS
Chain of PGT-143 (4980_N08) (antibody) (VL): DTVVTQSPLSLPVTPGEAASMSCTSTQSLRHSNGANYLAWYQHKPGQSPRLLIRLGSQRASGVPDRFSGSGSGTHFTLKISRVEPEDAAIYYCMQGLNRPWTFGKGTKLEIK

| Substance | IC50, pseudovirus neutralization [1] [µg/mL] | IC50 [2] [µg/mL] | IC50 (µg/ml), pseudovirus neutralization [3] [µg/mL] | IC50 [4] [µg/mL] | IC50 (µg/ml), pseudovirus neutralization [5] [µg/mL] | IC50 (µg/ml), pseudovirus neutralization [6] [µg/mL] | IC50 (µg/ml), pseudovirus neutralization [7] [µg/mL] | IC50 (µg/ml), pseudovirus neutralization [8] [µg/mL] | IC50 (µg/ml), pseudovirus neutralization [9] [µg/mL] | neutralization IC50 [10] [µg/mL] | IC50 (µg/ml), pseudovirus neutralization [11] [µg/mL] | IC50 (µg/ml), pseudovirus neutralization [12] [µg/mL] | IC50 (µg/ml), pseudovirus neutralization [13] [µg/mL] | IC50 (µg/ml), pseudovirus neutralization [14] [µg/mL] | IC50 [15] [µg/mL] | IC50 [16] [µg/mL] | IC50 (µg/ml), pseudovirus neutralization [17] [µg/mL] | also measured |
| --- | --- | --- | --- | --- | --- | --- | --- | --- | --- | --- | --- | --- | --- | --- | --- | --- | --- | --- |
| PGT-141 (4964_G22; 4993_K13) (antibody) | > 50 | 18 |  |  |  |  |  |  |  |  |  |  |  |  |  |  |  |  |
| 2F5 (antibody) |  |  | > 50 | 1.37 | 7.21 | 0.07 | 0.24 | > 50 | 5.7 | 2.8 | 1.79 | > 50 | 9.4 | 7.37 | 1.78 | 1.1 | 2.24 |  |
| PGT-142 (4995_E20) (antibody) | > 50 | 12.4 |  |  |  |  |  |  |  |  |  |  |  |  |  |  |  |  |
| 2G12 (antibody) |  |  | > 50 | 14.1 | > 50 | > 50 | > 50 | > 50 | > 50 | 23.9 | 0.95 | 2.93 | 7.47 | > 50 | 9.23 | > 50 | 28.2 |  |
| PGT-145 (4995_P16) (antibody) | > 50 | 0.164 |  |  |  |  |  |  |  |  |  |  |  |  |  |  |  |  |
| 1495_C14 (PGC14) (antibody) |  |  | 12 | 46 | > 50 | > 50 | > 50 | > 50 | > 50 | > 50 | > 50 | > 50 | > 50 | > 50 | > 50 | > 50 | > 50 |  |
| PGT-143 (4980_N08) (antibody) | > 50 | 18.9 |  |  |  |  |  |  |  |  |  |  |  |  |  |  |  |  |
| 1443_C16 (PG16) (TCN-116) (antibody) |  |  | 0.002 | > 50 | > 50 | 0.04 | 0.03 | 1.34 | 0.09 | > 50 | 0.31 | 16.8 | 0.01 | 2.65 | > 50 | 0.27 | 3.09 |  |
| PGT-144 (4970_K22) (antibody) | > 50 | > 50 |  |  |  |  |  |  |  |  |  |  |  |  |  |  |  |  |
| VRC01 (antibody) | 33.4 | 0.228 |  |  |  |  |  |  |  |  |  |  |  |  |  |  |  | IC50, single-round pseudovirus neutralization [18]: 0.319 µg/mL; IC50, pseudovirus neutralization [19]: 0.722 µg/mL; IC50, pseudovirus neutralization [20]: 0.155 µg/mL; IC50 (µg/mL), pseudovirus neutralization [21]: 0.576 µg/mL; IC50, pseudovirus neutralization [22]: 0.243 µg/mL; IC50, pseudovirus neutralization [23]: 0.29 µg/mL; IC50, pseudovirus neutralization [24]: 0.037 µg/mL; IC50 (µg/mL), pseudovirus neutralization [25]: 0.055 µg/mL; IC50 (µg/mL), pseudovirus neutralization [26]: > 50 µg/mL; IC50 (µg/mL), pseudovirus neutralization [27]: 0.644 µg/mL; IC50 (µg/mL), single-round pseudovirus neutralization [28]: 0.616 µg/mL; IC50 (µg/mL), pseudovirus neutralization [29]: 0.025 µg/mL |
| 4993_K13 (PGT-141) (antibody) |  |  |  |  |  |  |  |  |  |  |  |  |  |  |  |  |  | IC50, single-round pseudovirus neutralization [18]: 13.8 µg/mL; IC50, pseudovirus neutralization [19]: > 50 µg/mL; IC50, pseudovirus neutralization [20]: > 50 µg/mL; IC50 (µg/mL), pseudovirus neutralization [21]: > 5 µg/mL; IC50, pseudovirus neutralization [22]: > 50 µg/mL; IC50, pseudovirus neutralization [23]: 20.3 µg/mL; IC50, pseudovirus neutralization [24]: 0.579 µg/mL; IC50 (µg/mL), pseudovirus neutralization [25]: 0.043 µg/mL; IC50 (µg/mL), pseudovirus neutralization [26]: > 50 µg/mL; IC50 (µg/mL), pseudovirus neutralization [27]: > 50 µg/mL; IC50 (µg/mL), single-round pseudovirus neutralization [28]: 0.001 µg/mL; IC50 (µg/mL), pseudovirus neutralization [29]: 0.051 µg/mL |
| b12 (antibody) |  |  | > 50 | > 50 | > 50 | > 50 | > 50 | 3.62 | 3.64 | > 25 | > 50 | > 50 | 4.34 | > 50 | > 50 | > 50 | > 50 |  |
| 4E10 (antibody) |  |  | 3.49 | 1.87 | 1.34 | 0.45 | 0.34 | 4.68 | 4.09 | 3.8 | 2.61 | 5.66 | 12 | 5.94 | 0.44 | 1.01 | 6.32 |  |
